Source: US20260022175A1 (Chugai, published 2026)
Changes are numbered by the printed parent chain. In names and notes the source's numbering stands.

T1: human FcγRIIb extracellular domain with C-terminal His-tag (human, UniProt P31994 43-217)
T1 construct: extracellular domain; also called hFcγR IIb
T1 sequence (looked up): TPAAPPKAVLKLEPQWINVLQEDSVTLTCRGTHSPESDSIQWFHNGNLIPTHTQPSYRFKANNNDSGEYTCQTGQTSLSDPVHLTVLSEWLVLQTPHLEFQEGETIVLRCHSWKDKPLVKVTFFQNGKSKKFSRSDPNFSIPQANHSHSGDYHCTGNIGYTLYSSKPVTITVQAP

T2: human FcγRIIa H allotype extracellular domain with C-terminal His-tag (human, UniProt P12318 34-217)
T2 construct: extracellular domain; also called hFcγR IIa H
T2 sequence (looked up): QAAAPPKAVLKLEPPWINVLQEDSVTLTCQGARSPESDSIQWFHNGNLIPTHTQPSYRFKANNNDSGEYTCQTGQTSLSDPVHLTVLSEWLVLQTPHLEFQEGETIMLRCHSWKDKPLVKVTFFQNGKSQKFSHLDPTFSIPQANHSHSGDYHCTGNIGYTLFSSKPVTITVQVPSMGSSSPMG

T3: human FcγRIIa R allotype extracellular domain with C-terminal His-tag (human, UniProt P12318 34-217)
T3 construct: extracellular domain; also called hFcγR IIa R
T3 sequence (looked up): T2 sequence (looked up) with H134R

B1: 04H1077-G1m/04L1034-lam1 (antibody, human IgG1, lambda, V domains shown)
VH: EVQLVESGGDLVKPGGGLRLSCAASGFTFSSRTMNWVRQAPGKGLEWVSSISTRSGYIYYAESVKGRFTISRDNAKNSLYLQMNSLRAEDTAVYYCARYGKREDMLWVFDYWGQGTLVTVSS
VL: QSALTQPPSASGSPGQTVTISCDGPSTDVGDYNWVSWYQQHPGKAPKLMIYFTSKKPSGVPDRFSGSKSGNTASLTVSGLQAEDEADYFCSTYAAPLGPMFGGGTKLTVLG
B2: 04H1389-Ks481/04L1615-k0MT//04H1389-Hs498/04L1615-k0MT (antibody)
heavy 1: EVQLVESGGGLVKPGGSLRLSCAASGFTFSSKTMNWVRQAPGKGLEWVSSISTQSHYIYYAESVKGRFTISRDNAKNSLYLQMNSLRAEDTAVYYCARYGKREDMLWVFDYWGQGTLVTVSSASTKGPSVFPLAPSSKSTSGGTAALGCLVKDYFPEPVTVSWNSGALTSGVHTFPAVLQSSGLYSLSSVVTVPSSSLGTQTYICNVNHKPSNTKVDKRVEPKSCDKTHTCPPCPAPEFQWGPMVFLFPPKPKDVLMISRTPEVTCVVVDVSDEEPEVKFNWYVDGVEVHNAKTKPREEQYNATYRVVSVLPVLHQDWLNGKEYKCKVSNDALPAPEEKTISKAKGQPREPQVYTLPPSREEMTKNQVSLWCLVKGFYPSDIAVEWESNGQPENNYKTTPPVLDSDGSFFLYSKLTVDKSRWQQGNVFSCSVMHEALHAHTTRKELSLSP
heavy 2: B2 heavy 1 with F239L, Q240L, W241A, M244S, D273H, K339E, W371S, L373A, Y412V
light: DIVMTQSPLSLPVTPGEPASISCQGPSTGVGDYNYVHWYQQKPGQAPRLLIYFTSKKPSGVPDRFSGSGSGTDFTLKISRVEAEDVGVYYCQTYAAPLGPMFGQGTKLEIKRTVAAPSVFIFPPSDEQLKSGTASVVCLLNNFYPREAKVQWKVDNALQSGNSQESVTEQDSKDSTYSLSSTLTLSKADYEKHKVYACEVTHQGLSSPVTKSFNRGEC
notes: Heterodimerized antibody with N434A/Y436T/Q438R/S440E
B3: 04H1656-G1m/04L1612-lam1 (antibody, human IgG1, lambda)
heavy: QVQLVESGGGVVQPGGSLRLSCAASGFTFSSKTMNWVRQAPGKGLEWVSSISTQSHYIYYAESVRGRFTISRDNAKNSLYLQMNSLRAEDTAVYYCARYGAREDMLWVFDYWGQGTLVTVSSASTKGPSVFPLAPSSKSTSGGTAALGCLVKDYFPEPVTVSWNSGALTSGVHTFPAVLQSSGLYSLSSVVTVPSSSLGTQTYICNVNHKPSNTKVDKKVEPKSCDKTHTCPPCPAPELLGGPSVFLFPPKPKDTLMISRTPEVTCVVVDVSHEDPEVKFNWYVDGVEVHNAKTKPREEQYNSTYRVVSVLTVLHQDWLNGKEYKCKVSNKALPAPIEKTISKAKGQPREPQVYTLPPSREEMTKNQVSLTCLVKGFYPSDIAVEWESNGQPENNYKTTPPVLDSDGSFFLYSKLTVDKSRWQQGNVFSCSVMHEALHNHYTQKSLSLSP
light: QSALTQPPSASGSPGQSVTISCEGPSTGVGDYTYVHWYQQHPGKAPKLMIYFTSKKPSGVPDRFSGSKSGNTASLTVSGLQAEDEADYYCQTYAAPLGPMFGGGTKLTVLGQPKAAPSVTLFPPSSEELQANKATLVCLISDFYPGAVTVAWKADSSPVKAGVETTTPSKQSNNKYAASSYLSLTPEQWKSHRSYSCQVTHEGSTVEKTVAPTECS
B4: 04H1389-Ks461/04L1615-k0MT//04H1389-Hs443/04L1615-k0MT (antibody, human IgG1, kappa)
heavy 1: B2 heavy 1 with A439N, T441Y, R443Q, E445S
heavy 2: EVQLVESGGGLVKPGGSLRLSCAASGFTFSSKTMNWVRQAPGKGLEWVSSISTQSHYIYYAESVKGRFTISRDNAKNSLYLQMNSLRAEDTAVYYCARYGKREDMLWVFDYWGQGTLVTVSSASTKGPSVFPLAPSSKSTSGGTAALGCLVKDYFPEPVTVSWNSGALTSGVHTFPAVLQSSGLYSLSSVVTVPSSSLGTQTYICNVNHKPSNTKVDKRVEPKSCDKTHTCPPCPAPELLAGPSVFLFPPKPKDVLMISRTPEVTCVVVDVSHEEPEVKFNWYVDGVEVHNAKTKPREEQYNATYRVVSVLPVLHQDWLNGKEYKCKVSNDALPAPEEETISKAKGQPREPQVYTLPPSREEMTKNQVSLSCAVKGFYPSDIAVEWESNGQPENNYKTTPPVLDSDGSFFLVSKLTVDKSRWQQGNVFSCSVMHEALHNHYTQKSLSLSP
light: B2 light
notes: Heterodimerized antibody

Assays:
[1] = target: T4, hCTLA4-His-BAP (human CTLA4 extracellular region with C-terminal His-tag and BAP-tag) (human, biotin on the BAP-tag); experiment: SPR 37C, hCTLA4 1000 nM, no ATP; no ATP; binding amount at 1000 nM hCTLA4
T4 construct: also called hCTLA4-His-Biotin
T4 sequence (chain, as listed by the source limits assumed): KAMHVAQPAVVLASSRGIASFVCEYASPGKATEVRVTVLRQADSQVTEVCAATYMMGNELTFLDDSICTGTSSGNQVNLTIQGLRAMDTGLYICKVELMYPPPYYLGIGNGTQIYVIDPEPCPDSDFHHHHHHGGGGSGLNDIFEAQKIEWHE

[2] = target: T4, hCTLA4-His-BAP (human CTLA4 …); experiment: SPR 37C, ATP 100 µM; ATP 100 µM
[3] = target: T4, hCTLA4-His-BAP (human CTLA4 …); experiment: SPR 37C, hCTLA4 1000 nM, ATP 1 µM; ATP 1 µM; binding amount at 1000 nM hCTLA4
[4] = target: T4, hCTLA4-His-BAP (human CTLA4 …); experiment: SPR 37C, hCTLA4 1000 nM, ATP 10 µM; ATP 10 µM; binding amount at 1000 nM hCTLA4
[5] = target: T4, hCTLA4-His-BAP (human CTLA4 …); experiment: SPR 37C, hCTLA4 1000 nM, ATP 100 µM; ATP 100 µM; binding amount at 1000 nM hCTLA4
[6] = target: T1, human FcγRIIb extracellular domain with …; experiment: SPR; FcγRIIb bound amount per unit captured Ab
[7] = target: T2, human FcγRIIa H allotype extracellular …; experiment: SPR Biacore T200, Ab captured via Fab-kappa, pH 7.4, 25C;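 note: each FcγR flowed as analyte over the captured antibodies, KD derived by 1:1 Langmuir or steady-state affinity fitting depending on the receptor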
[8] = target: T5, human FcγRIIIa F allotype extracellular domain with C-terminal His-tag (human, UniProt P08637 17-208); experiment: as above
T5 construct: extracellular domain; also called hFcγR IIIa F
T5 sequence (P08637 17-208): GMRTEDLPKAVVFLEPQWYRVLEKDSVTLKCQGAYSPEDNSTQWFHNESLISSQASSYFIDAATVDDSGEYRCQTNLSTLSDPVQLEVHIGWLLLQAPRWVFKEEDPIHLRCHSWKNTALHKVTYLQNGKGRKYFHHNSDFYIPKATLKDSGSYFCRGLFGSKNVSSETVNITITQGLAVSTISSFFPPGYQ

[9] = target: T6, human FcγRIIIa V allotype extracellular domain with C-terminal His-tag (human, UniProt P08637 17-208); experiment: as above
T6 construct: extracellular domain; also called hFcγR IIIa V
T6 sequence (P08637 17-208 F176V): as the sequence (P08637 17-208) above, with F160V counted along it

[10] = target: T3, human FcγRIIa R allotype extracellular …; experiment: as above
[11] = target: T7, human FcγRIa extracellular domain with C-terminal His-tag (human, UniProt P12314 16-292); experiment: as above
T7 construct: extracellular domain; also called hFcγR Ia; hFcγRIa
T7 sequence (P12314 16-292): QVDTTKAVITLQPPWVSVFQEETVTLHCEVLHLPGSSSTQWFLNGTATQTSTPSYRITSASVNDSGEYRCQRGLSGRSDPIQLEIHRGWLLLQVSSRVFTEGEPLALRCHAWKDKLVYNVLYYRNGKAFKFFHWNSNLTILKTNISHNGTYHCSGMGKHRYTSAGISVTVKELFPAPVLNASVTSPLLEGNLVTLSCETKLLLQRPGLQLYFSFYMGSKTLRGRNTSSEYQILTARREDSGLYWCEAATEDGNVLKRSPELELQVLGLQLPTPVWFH

[12] = target: T2, human FcγRIIa H allotype extracellular …; experiment: SPR; KD of 04H1389-G1m/04L1615-k0MT divided by KD of variant
human FcRn [13] = target: T8, human FcRn (human, UniProt P55899 24-290; P61769 21-119); experiment: as above
T8 construct: Prepared by the method of WO 2010/107110; also called hFcRn
T8 sequence (P55899 24-290 limits assumed, chain 1 of 2): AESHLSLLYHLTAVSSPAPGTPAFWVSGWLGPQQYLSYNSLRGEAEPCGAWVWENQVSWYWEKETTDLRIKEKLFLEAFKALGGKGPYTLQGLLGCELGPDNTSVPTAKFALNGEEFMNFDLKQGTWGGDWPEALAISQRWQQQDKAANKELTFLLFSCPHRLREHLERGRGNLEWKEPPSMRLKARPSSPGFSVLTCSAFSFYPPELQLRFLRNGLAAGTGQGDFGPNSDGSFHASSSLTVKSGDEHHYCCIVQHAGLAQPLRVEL
T8 sequence (P61769 21-119 limits assumed, chain 2 of 2): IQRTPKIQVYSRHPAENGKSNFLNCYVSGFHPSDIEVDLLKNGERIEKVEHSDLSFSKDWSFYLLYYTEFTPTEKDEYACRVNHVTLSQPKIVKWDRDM

[14] = target: T6, human FcγRIIIa V allotype extracellular …; experiment: as above
[15] = target: T3, human FcγRIIa R allotype extracellular …; experiment: as above
[16] = target: T7, human FcγRIa extracellular domain with …; experiment: as above
human FcRn [17] = target: T8, human FcRn; experiment: SPR Biacore T200, Ab captured via Fab-kappa, pH 6.0, steady state
[18] = target: T1, human FcγRIIb extracellular domain with …; experiment: SPR; binding amount divided by that of 04H1389-G1m/04L1615-k0MT
human CTLA4 [19] = target: T9, human CTLA4 (human); experiment: SPR Biacore T200, 37C, antibody captured, no ATP, steady state model
T9 construct: also called hCTLA4; hCTLA4-His-BAP

human CTLA4 [20] = target: T9, human CTLA4; experiment: SPR Biacore T200, 37C, antibody captured, ATP 1 uM
human CTLA4 [21] = target: T9, human CTLA4; experiment: SPR Biacore T200, 37C, antibody captured, ATP 10 uM
human CTLA4 [22] = target: T9, human CTLA4; experiment: as above; remark: listed apart in the source
human CTLA4 [23] = target: T9, human CTLA4; experiment: as above; remark: listed apart in the source
[24] = target: T10, cynomolgus monkey CTLA4 (CyCTLA4-His-BAP) (cynomolgus monkey); experiment: as above
T10 sequence (chain, as listed by the source limits assumed): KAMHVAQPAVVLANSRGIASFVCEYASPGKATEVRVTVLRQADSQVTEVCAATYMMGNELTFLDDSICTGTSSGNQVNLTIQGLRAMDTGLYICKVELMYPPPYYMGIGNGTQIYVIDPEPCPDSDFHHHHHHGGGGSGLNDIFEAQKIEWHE

human CTLA4 [25] = target: T9, human CTLA4; experiment: SPR Biacore T200, 37C, antibody captured, ATP 1 uM; remark: listed apart in the source
[26] = target: T10, cynomolgus monkey CTLA4 …; experiment: SPR Biacore T200, 37C, antibody captured, ATP 1 uM
human CTLA4 [27] = target: T9, human CTLA4; experiment: SPR Biacore T200, 37C, antibody captured, ADP 10 uM;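 note: antibodies held on a Protein G CM3 chip, human CTLA4 as analyte in ACES pH 7.4 buffer, rates from a global 1:1 Langmuir fit, Kd from rates or steady state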
human CTLA4 [28] = target: T9, human CTLA4; experiment: SPR Biacore T200, 37C, antibody captured, AMP 10 uM
human CTLA4 [29] = target: T9, human CTLA4; experiment: SPR Biacore T200, 37C, antibody captured, ATP 100 uM
[30] = target: T10, cynomolgus monkey CTLA4 …; experiment: as above

Row | Binder | Binding amount [6] | Kd [7] [nM] | Kd [8] [nM] | Kd [9] [nM] | Kd [10] [nM] | Kd [11] [nM] | Relative value to KD between G1m and hFcγRs [12] | Relative value to KD between G1m and hFcRn (human FcRn [13]) | Relative value to KD between G1m and hFcγRs [14] | Relative value to KD between G1m and hFcγRs [15] | Relative value to KD between G1m and hFcγRs [16] | Kd (human FcRn [17]) [nM] | Relative binding amount [18] | other results
1 | B1 | – | – | – | – | – | – | – | – | – | – | – | – | – | Binding to Human CTLA4 [1]: 0.004 per unit amount of antibody; Kd [2]: 320 nM; Binding to Human CTLA4 [3]: 0.007 per unit amount of antibody; Binding to Human CTLA4 [4]: 0.041 per unit amount of antibody; Binding to Human CTLA4 [5]: 0.114 per unit amount of antibody
2 | B2 | 0.023 | 190 | 1.3 | 0.6 | 260 | 0.028 | 5.6 | 2.8 | 1500 | 5.6 | 1.6 | 460 | 2 | –
3 | B3 | – | – | – | – | – | – | – | – | – | – | – | – | – | Kd (human CTLA4 [19]): 7600 nM; Kd (human CTLA4 [20]): 160 nM; Kd (human CTLA4 [21]): 26 nM; koff (human CTLA4 [21]): 0.0029 s⁻¹; kon (human CTLA4 [21]): 110000 M⁻¹ s⁻¹; Kd (human CTLA4 [22]): 32 nM; Kd (human CTLA4 [23]): 25 nM; Kd [24]: 41 nM; Kd (human CTLA4 [25]): 95 nM; Kd [26]: 160 nM; Kd (human CTLA4 [27]): 42 nM; koff (human CTLA4 [27]): 0.0064 s⁻¹; kon (human CTLA4 [27]): 150000 M⁻¹ s⁻¹; Kd (human CTLA4 [28]): 130 nM; koff (human CTLA4 [28]): 0.02 s⁻¹; kon (human CTLA4 [28]): 150000 M⁻¹ s⁻¹; Kd (human CTLA4 [29]): 7.8 nM; Kd [30]: 16 nM
4 | B4 | 0.024 | 160 | 1.2 | 0.56 | 250 | 0.03 | 6.7 | 0.8 | 1630 | 5.9 | 1.5 | 1700 | 2.1 | –
